Measured values published in a protein production outcome set (Wang et al. 2014).

Test: label from the status in PepcDB records
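Note: failed if final PepcDB status was selected cloned or expressed and not failed if soluble or beyond.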

Sequence | protein production
VPPDTLHSLPKSQVKRQEVISELLVTEAAHVRMLRVLHDLFFQPMAECLFFPLEELQNIFPSLDELIEVHSLFLDRLMKRRQESGYLIEEIGDVLLARFDGAEGSWFQKISSRFCSRQSFALEQLKAKQRKDPRFCAFVQEAESRPRCRRLQLKDMIPTEMQRLTKYPLLLQSIGQNTEEPTEREKVELAAECCREILHHVNQAVRDMEDLLRLKDYQRRLDLSHLRQSSDPMLSEFKNLDITKKKLVHEGPLTWRVTKDKAVEVHV | failed
MPEITLKVDSAYPEDQGNGKARLDPSAMQALNVSPGDLVRITGKTSTVAKVWRSFESDWNMEKIRIDKYTRANASVNPGDRVTVEKVEEEIPATSVTLVSPSEISAAFPDEEDDYLISLINFPVSLDDIIPIKTFHPGPPLEFKVSAIEPENACILNKMTELVFNDDDEFDGTKAITYEDIGGLKGELKRVREMIELPIRHPELFETMGIEPPKGVLLYGPPGTGKTLIAKAVANESGAHFISIAGPEIISKYYGESEQKLREIFEEAEEEAPSIIFIDELDSIAPKREDVNGEVERRVVAQLLTMLDGITDRGQVIVIGATNRPDAIDPALRRPGRFDREIEIGVPAEADRMEILQIHTKDMPFEGMAKLKELRSSEPSETVLEKALADYEASRDKLLWMLASQAKGFVGADLAALAREAAIRALRRQIDVADIDNEKIPEEVLRKLEVTTSDFILASREVAPSAMREIALETADVSWTDIGGSRDAVRDVRESVEFPLTRKEVFAQLGIRPPKGVLLYGPPGTGKTMIAKAVAHESGANFIAVKGPELLSKWVGESEKAVRDIFKKARQVAPAIIFFDELDSLTPSRGASDGSRTTENVLNQILTEMDGIEELNDVMILAASNRPDIIDPALLRSGRFDRLVYISEPEEADRKEILAVHMQNMPIEGSSFDEAVKEVSGLNEASLESLGAKFSGKSVTIKQIKTAAGKYTKGTPLSLIEERRRLAAVLRQHAVTLSDPEKTKLIRQLAEDTAGYVGSDLEGLCREAAMHALRNQANVVTADDFAEARKKIHPTMNERVREYYISISQRFKGGLPKEAQNLIEYQ | failed
MLDCIVVGAGPAGGSAAYHLARRDRQVLLLEQAQLPRQKACAGGVSPQVARWFDCDLRSVVDHGVDRLRFTWKLGDPVEAELPSEEPFWMVRRDRFDHFLVEQAANLGARIEDGAAVTAVSAEGDGWLVTVGDRAYRSRTLIAADGARGPLAQWLGFPSQKRRYAQACELDVPLPARPDSTAHFEFGLVRNGYIWVFPKSDGYSIGIGTFRGNDATDFRGLLETYLAGFGVSADLDRIVPHPLCVWDGSQPLHRGSALLVGEAASLTDPFTAEGIRPALLSGMRAAEAIDRAIAGDRNALAGYSRTIQQEWGDSMAWAKRISSVFYRVPNLGYQIGIKRPTAPQRMAQILVGELDYSDIATRVIRRLTTGFLPGMR | failed
MAYLAPISSSLSIFKNPQLSRFQFSSSSPNPLFLRPRIQILSMTMNKSPSLVVVAATTAAEKQKKRYPGESKGFVEEMRFVAMRLHTKDQAKEGEKETKSIEERPVAKWEPTVEGYLRFLVDSKLVYDTLELIIQDSNFPTYAEFKNTGLERAEKLSTDLEWFKEQGYEIPEPTAPGKTYSQYLKELAEKDPQAFICHFYNIYFAHSAGGRMIGRKVAERILDNKELEFYKWDGELSQLLQNVREKLNKVAEEWTREEKNHCLEETEKSFKYSGEILRLILS | failed
MATKARVMYDFAAEPGNNELTVTEGEIITVTNPNVGGGWLEGKNNKGEQGLVPTDYVEILPNDGKDPFSC | not failed
MRCGWLLGFLFLLSVLSYPRPAVAMTVLAEEYAPLSYSVDGQPRGFAVELFHELERRLALPPSDVTFMAWSRAYRLLLRGPRHAILFMGRTMEREDKVWFVGPIWVEDDYFYKKAGSHVAAATLDEARTVSRIGVVRDDFYQLRLQEMGFTNLDLGTSHEQGLRKLAQGRVDLVPMGELTAASQIANYPGLSMDSFERTDIHLLRSEMYIGFSRDMAWVEVERWQKALDHLRQDGTYDQILRKFVPQWRSR | failed
MSFDPIYFLTPIIVMVFSFGMVYKLVKSIKVLMFSALAYFIAIVLKVLVQFFTLGYLASINSLAVLGLYYGLQTSIFEVGLAYVFALLGKLKNGWGYGVSLAMWENGVLISIPTLFIYIAYYFFPLILSTPSQLEYPITQALPLIGLSILERVSSLLIHSSWGYLSVLSVITGRKRLILVAFPMGFVDFLVPFEKYLGILTFEFIFFCIGLICLVMAWSLGKYYRSTSSKDT | failed
MAHHHHHHMRKIYIAGPAVFNPDMGASYYNKVRELLKKENVMPLIPTDNEATGALDIRQKNIQMIKDCDAVIADLSPFRGHEPDCGTAFEVGYAAALNKMVLTFTSDRRNMREKYGSEVDKDNLRVEGFGLPFNLMLYDGVEVFDSFESAFKYFLANFPSK | not failed
MSLTFPTLSPTQIIQYIHLGSFLNAHNVDYIHNNNISSILLVGIEVPSLFKDQCDILRLDIVSEEGHQLYDSIPNAIKFIIRSIQRKEGVLIISGTGVNKAPAIVIAFLMYYQRLSFINAFNKVQGLYPLIDIESGFILQLKLFEKKLEKMNSEGHHHHHH | not failed
MIAHPVVGIVGIAGAYGRWLAQFLRTRMGLEVIGVDPALPDGLDDATLVARADVLIFSAPIRHTAALIERYAALAGARAAEQLWLDVTSIKQAPVAAMLASQAEVVGLHPMTAPPKSPTLKGRVMVVCRARVQRWSGWVDALCSALQAECVYATPEHHDRVMALVQAMVHATHLAQAGTLRDYAPLLGELRTLMPYRSASFELDTAVIARILSLNPSIYEDIQFGNPYVAEMLDRLLAQLQELRGLVVQGDDAARLRFRQAFLDANAQALQGDSLAAGNYTYERVGYLLADLTEPLTLSVYLPEDQPGSLRVLLHVFEQHGVNLSSIHSSRTPGGELHFRMGFEPESDRAALGRAAAQIDADRIGRVLERVDRER | failed
MCSIGVTALCSPAKFHHRREQSLIFTPTHLRNPNGFQFRWRKSRPFAPRLAQPDNFAPPLPLIRSSTSLLSSKDFVQMLARKAAILLVGSFVFLGFCSSKPALALPTATVVSQAELEDEKMFEKLLENEPENMEAMKAVVYKKMRRGKNEDAVKYVEKLMKLEPHEVEWKLLEALCYETMGELSKAKRLYKDILKEQPLLIRALHGLAMVMHKTHDTSVFDMLIEAMEVARQGNRVTEERNIQVLIGQMHIVEGQFEEGLKIFQQMVNDNPRDFRPYLCQGIVYSLMDKKEEAAQQFEIYWSLVPGEFPQKGFLDDVALAAQAKSRERLQNTFKAKFTQGR | failed
MAFQVKIHQIRAFVEVARQGSIRGASRMLNMSQPALSKSIQELEEGLAAQLFFRRSKGVTLTDAGESFYQHASLILEELRAAQEDIRQRQGQLAGQINIGMGASISRSLMPAVISRFHQQHPQVKVRIMEGQLVSMINELRQGELDFTINTYYQGPYDHEFTFEKLLEKQFAIFCRPGHPAIGARSIKQLLDYSWTMPTPHGSYYKQLSELLDDQAQTPQVGVVCETFSACISLVAKSDFLSKLPEEMGCDPLHGQGLVMLPVSEILPKAAYYLIQRRDSRQTPLTASLITQFRRECGYLQS | failed
MMMLQGSKSGSEMEVTWEDQQNINIFSRLNNRVHDLDDDIKSAKEKCENLEDAGNELILADEEMVRFQIGEVFAHVPRDDVETKIEEMKEATCKSLEKLEQEKESIVTQMAALKKVLYAKFKDSINLEED | failed
MEKESQTIFDKNVIEFVTVAAEFCAFLERAESMKRSTFVDTSLKILPLLYLKASMLPKCETIGDEAPETYVTEEIYEILRINLAGLMGDKDDYLDVFVQDMVYSDQPIKKSISEDLADIYQDIKDFIFVFQLGLNETMNDSLAICQENFGMLWGQKLVNTLRALHDVKYNLQDNEEEEENNEEGFYEPSEDDSCCEEGGCHCHDDECHCHEGSCHCHDDEK | failed
MNTGTAVITGASSGLGLQCARALLRRDASWHVVLAVRDPARGRAAMEELGEPNRCSVLEVDLASVRSVRSFVETVRTTPLPPIRALVCNAGLQVVSGIAFTDDGVEMTFGVNHLGHFALVTGILDWLARPARIVVVSSGTHDPSKHTGMPDPRYTCAADLAHPPTDQNTPAEGRRRYTTSKLCNVLFTYELDRRLDHGEQGVMVNAFDPGLMPGSGLARDYPPILRLAYRLLSPMLRVLPFVHSTRVSGEHLAALAVDPRFAGVTGQYFAGAKAIRSSAESYDRAKALDLWETSERLLAQVT | failed
MKKLYRYVLFTFLLIFSQLSFANWDLTDNQPIEISAQATNIEADIRALPEQHFFSNNDYAQVKRLLSTTISQQKEHATALKEALATYREDSSNQNWIAVETVHQSLTSLNLSKEQLLKLTNSTTREQLTGFGPYGVTQFYSELSITKLNIEYYLHYQIRSFKNLLKDLTISPVPIISVIFKVLCVFFIFSWWMKNSSRLINDFKTSKLENGTKPNFFIRSIWYLTRAHKAIAWLLLITVTLRIVSTLPSLQHLIFLEIFTWWILGGSIAVSFILEFIYRNSKHNKKEIIALRLSTVRHYVWGIIVAGVILQISSRTLGQGTIYAWINSLMYLFFVLLTIHTLRKWKPTVFERIERVDPLPLSIQWAKRNQKTFLISIAATACGAAWLSWRALQHSIIALLSQYAAFSHALAYLFRIEVAKQTEVAREQSNLVRVKGTAAFDYIAPGSEDSELIEDYAKDEMSALSRYLLTESPAVCVLSGERGVGTTTLLNRILNKVKNATPIYINCPYDGYSALLPELAKQLGLDEESSERDILQYLRNSDTCYLLAFDSAQRLVKPKVNGLADLMKLTNLLRRARKSHRVVLAIEKSCWRFIDRARGERLLFDLVTFMPKWDEKQIGQLLESRITLSEGQPTISFDGLVLPRQWDEENLTEEERARNGFYRILWDYSDGNPTVALRFFRLSLHRDKDTDAILVRLFRAPHSDDLETMPKPMLAVLRSIVQLEVASPADVCDCSRLSMAEVISTLRYFQSRGYIEWSDDKARISDHWFRHITNVLHRQHLLVK | failed
MSLATQQLGIIGLFVPTFFGSYYGTILKQTDLELRAVHRHVVVATGCGESTPREQALEAVRFLIGRDCDGVVVISHDLHDEDLDELHRMHPKMVFLNRAFDALPDASFCPDHRRGGELAAATLIEHGHRKLAVISGPFTASDNVERLDGFFDELARHGIARDSVPLIESDFSPEGGYAATCQLLESKAPFTGLFCANDTMAVSALARFQQLGISVPGDVSVIGYDDDYSAAYAAPALTSVHIPTAELTQNAVRWLINQCYGTKWEIFREFPVTVSMRASVAREGHHHHHH | not failed
MVSRIPTGNRGQGNGIEQSASSHATEATPWLGVNLPYGHWLPSSARSVVSRASSLLGGLANFRWGGRPASARPAPNIRSAAIAPAQQTLPPELWQQIATLAGARPRRAMREVSLELRNASRAVVTHLTISDPAMFRQLSLYPALKSVRFKGELTLEALKALPPELEHLEIGRCTGSAISAEGLAHLASMPLKSLNLNGIEIGVEGARTLAASKSLVSLSLIGCGIGDRAAQALVASRSIQCLDLSVNRIGRDGAQALAGAPLVSLNLHNNEIGNEGARVLATSRTLTSLDVSNNGVGNAGAEAFAGNTVLKQLSLAGGMISGDGAQALADNKSLTDLDLSNNRLGDAGAQALADSESFVSLKLGGNEIGADGAEALARNVVLQSLNLSYNPIGFWGVNALGRAKLRKLDLCACAIDSDGASALARNTSLASLYLGSNRIGDDGARALAKNSTLTLLNLSGNNIHAVGAQALASNDSLITLDLSRNGIGDDGTAALACHPRLTSLNLSRNQIGSTGAQQLAKSATLAELDLSENRIGPEGAEALARSTVLTTLNVSYNAIGEAGARALAESVSLTSLDARRNGIGEDGAKVLEANTRITGTPQNPNFLAEDVPRPDVRWRD | failed
